The text below walks through data of US20240245805A1 (Orna Therapeutics, Inc., priority 2020, published 2024).

B1: EV A114 (nucleic acid, listed as Enterovirus sp.)
chain: TGTGCGCCTGTTTTGAAACCCCCTCCCCCAACTCGAAACGTAGAAGTAATGTACACTACTGATCAGTAGCAGGCGTGGCGCACCAGCCATGTCTCGATCAAGCACTTCTGTTTCCCCGGACTGAGTATCAATAGACTGCTCACGCGGTTGAAGGTGAAAACGTCCGTTACCCGGCTAACTACTTCGAGAAACCTAGTAGCACCATAGAAACTGCAGAGTGTTTCGCTCAGCACTTCCCCCGTGTAGATCAGGTCGATGAGTCACTGCAATCCCCACGGGTGACCGTGGCAGTGGCTGCGTTGGCGGCCTGCCTATGGGGCAACCCATAGGACGCTCTAAGGTGGACATGGTGTGAAGAGTCTATTGAGCTAGTTAGTAGTCCTCCGGCCCCTGAATGCGGCTAATCCTAACTGTGGAGCGCATACTCCCAAACCAGGGAGCAGTGCGTCGTAACGGGCAACTCCGCAGCGGAACCGACTACTTTGGGTGTCCGTGTTTCCTTTTATTCCTATACTGGCTGCTTATGGTGACAATTGAGAGATTGTTACCATATAGCTATTGGATTGGCCATCCAGTGTGTAATAGAGCAATCATTTACCAATTTGTTGGATTTACTCCATTAACCCACACGTCTCTCAACACACTACATTTCATCTTACTACTGAACACTAGAAA
modifications: lipid formulation
B2: GFTV (nucleic acid)
chain: ATGGGGAAGGGTATGACGTGCCCCTTCCTTCTTCGGAGAACTCGCTCTAGTGGTCTTTCCACTTCTGGAAAAGAGTGAGTGCACGTGATCAGGACCGTCGAAGACGACAAATACCTGGTGCTCTATCTCATAGACGTTTCACAGCTGTAGCGACCCCTCAGTAGCAGCGGAAGCCCCCTCCTGGTGACAGGAGCCTCTGCGGCCAAAAGCCACGTGGATAAGATCCACTGCTGAGGGCGGTGCGACCCTAGCACCCTGTGATGCATACTAGTTGTAGCGTGCCGGACTATTGGTCTGTCATAAGACACCTGATAGAGAGACCAAGAATGTCCTGGAGGTACCCCGCGTGCGGGATCTGACCAGGAGACCATTGCCCAATGCTTTACAACGGGTCTATGGTTTAAAAACTGTCGCAGTCTCTCCAAACCAAGTGGTCTTGGTTTTCAATTACTTTGAATATTTCACT
modifications: lipid formulation; source: /note="Description of Unknown: GFTV sequence"
B3: Hunnivirus A2 (nucleic acid, listed as Hunnivirus sp.)
DNA: ACAGTTTTTGACAAGGACCCTCACCTGTCAATCGGGACCACCACTTTCAGTGACCCCGTGCGAAGTGTTGAGAGAAAGTGAGCTTTCTTACCCTTCATTTGTGAACCCTTCAGTCGAAGCCGCTTGGAATAAGATGGAAGGAAATGTTCATTCTAAATGGAGTGAAACATATACTTAATTTCCAGTGTTTAGTGGTCTTTCCACTAGACAACGGCACTGTCTTGCCGGAACTCTACACACCAACATTCCACGCTTGTGGGACTCAAATGTTGGATGACACAGTTGTAGCTGGAACTGAGTGTTTAGTGCACTCTGTGTAACAGTGAAAACAATGTGATCACTTCGGTGGGCTAGTAGCCTGTGGACTAACAACTGGTAACAGTTGCCTCAGGGGCCAAAAGCCACGGTGTTAACAGCACCCTACTAGTTTGATTGGAGCAATCCATGATGTTACAGAGTTAGTAACTGCCAAACAGATTGTACTGGTATCTTGGCATACCGTGCAACTTAGGATAGTGAAGGATGCCCTGGCGGTACCCATAGGTAACAAGTGACACTATGGATCTAAACAGGGGCTCACTCTACGTTGCTTTACAACTAGCTGTGAGTTAAAAAACGTCTAACTATCCACAACCTAGGGGACTAGGTTTTCCTTTTTATTTTTATACACAACTA
B4: VHEV (nucleic acid)
DNA: AATTCCTTCTTCCTTTCTCCTTGGACCTCGGTCCCCCGGTCTAAGCCGCTCGGAATATGACAGGGTTATTTTCACCTCTTCTCTCTTCTACTTCATAGTGTTCTATACTATGAAAGGGTATGTGTCGCCCCTTCCTTCTTGGAGAACGTGCGTGGCGGTCTTTCCGTCTCTCGAAAAACGTGCGTGCGACATGCAGAGTAACGCAAAGAAAGCAGTTCTTGGTCTAGCTCTGGTGCCCACAAGAAAACAGCTGTAGCGACCACACAAAGGCAGCGGAAACCCCCTCCTGGTAACAGGAGCCTCTGCGGCCAAAAGCCACGTGGATAAGATCCACCTTTGTGTGCGGTGCAACCCCAGCACCCTGGTTTCTTGGTGACACCTTAGTGAACCCTCGAATGGCAATCTCAAGCGCCTCTGTAGGAAAGCCAAGAATGTCCAGGAGGTACCCCTTCCTCATGGAGGGATCTGACCTGGAGACACATCACACGTGCTATACACTTGTGCTTGTGTTTAAAAATTGTCACAGCTTTCCCAAACCAAGTGGTCTTGGTTTTCCCTTAACTTCGAAAAGTCACTATGGCCTGCAAACATGGATACCCAGACGTGTGCCCT
modifications: source: /note="Description of Unknown: VHEV sequence"
B5: Ia Io (nucleic acid)
DNA: GGTGTCCGGGTGTGTGGGATAGACCCAGATGTGCAGTGGATGCGAGCATTTGAGTCAGAGTAGGAGCAAGCCCAGGGGCAAAGGGACCACATTGTGTATCCCGAATGAAGGATCGAGATTTCTCTCCTCATTACCCGGTGTCTTGTCACTGTTGGGGGGGCCCAACAGTCTTAGTCCTATACTGCCTGATAGGGTCGCGGCTGGCCGGACTCAAGTGCTATAGTCAGTTGATTTTCACTC
modifications: source: /note="Description of Unknown: Ia Io sequence"
B6: Hunnivirus A1 (nucleic acid, listed as Hunnivirus sp.)
DNA: TAACGTTTGGCAAGAACCCTCACCTGTCAATTGGGACCACCACTTTCAGTGACCCCATGCGAAGTAGTGAGAGAGAATAAGCTTTCTTACCCTTCATTTGTGAACCCTTCAGTCGAAGCCGCTTGGAATAAGATAGGAGGAAAAGTTCATTCTAAATGGAGTGAAACATGTACTTCAGAATTTCTAGCACGCGCTGGGCTTTCTTGCGTGTGACGGCACTGTCTTGCCGGAGCTCTCCACACTGACACCCCACGCTTGTGGACCTTGGTGGCAGATGACAACACTGCAGCTGGAATTGAGTGTCTGGTACACTCTGTGTAACAGTGAAAACAATGTGATCACTTCGGTGAGCTAGTAGCCTGTGGACCAACAACTGGTAACAGTTGCCTCAGGGGCCAAAAGCCACGGTGTTTACAGCACCCTACTGGTTTGATTGGAGCAATCCAAGATGTCACAGAGTTAGTAATTGCCAAGCAGTCCGTACTGGTATCTTGACATACCGTGCAGTTTTGGATAGTGAAGGATGCCCTGACGGTACCCATAGGTAACAAGTGACACTATGGATCTAAGCAGGGGCTCACTCTACGCTGCTTTACAGCTGGCTGTGAGTTAAAAAACGTCTAGCTATCCACAACCTAGGGGACTAGGTTTTCCTTTTATTTAGATTACAATTAT
B7: Taura Syndrome Virus: "an IRES is an IRES sequence of Taura syndrome virus" (nucleic acid)
DNA: CTTTAAAAGTCGTGCGTGGCTTCACCACGCACGATCAGTACTATCAGTTAACCACTCTTGAATATGCTCAATGACCCTATTCAACACTGGTGTCTCTTAGTACATTATTTTAGCACTTAACGTGCATGAGTTTTGCCCATTTCTTTCAAAAAAATGAGTATTCGAGGAGACGTCCCGCTCCCCGTCTTATTTCAACCGTAGACTCGACATCTATTGGTGGACATTTAATTCCAGTCGCCGTAAGTTGCTTCTGCCCCGCGCTATATTTTCTTATACTTATGGTTCTATAGGTCTGGTTTAAAACGTAAATAGACGGCCCACAAACTATAGAACGCGTACCCGGAACGCCAATCCCGGATAAGTCCCTGGATATATAGATGCACCGCAATATAAGCCTGCAGACTGTCTCATATACT
modifications: Taura Syndrome Virus

This series deals with HEK293 cells. In kind it is cell-based, human. The following applies: circular RNA encoding Gluc with the listed IRES (UTR truncated to 675 nt) transfected into HEK293 cells; supernatant after 24 hours.
B1: the “Expression (luminescence from secreted Gluc protein)” value (from here on “Expression”) is 1.50E+08. In the case of B2 it was 1.23E+06; in that of B3, 6.38E+06. As for B4, the “Expression” value amounted to 1.74E+08.

For the molecule B5, the “Expression” value is reported as 1.35E+06. In the case of B6, the “Expression” value stood at 1.61E+06. Take B7: the “Expression” value was 8.30E+05.
